In paper PMC9712993, “A noncanonical RNA-binding domain of the fragile X protein, FMRP, elicits translational repression independent of mRNA G-quadruplexes”:

Target: RGG+CTD (Homo sapiens, UniProt Q06787 527-632)
Experiment: EMSA; 10 mM Tris-HCl, 100 mM KCl, 5 mM Mg(OAc)2, pH 7.4, BSA, on ice 1 h; mRNA EMSA 0.4 pmol RNA + 20 pmol protein in 18 ul; oligo EMSA 0.2 (G17: 0.4) pmol RNA + 22 pmol protein in 7 ul; FP 5.5 pmol RNA + 300 pmol protein in 100 ul; EMSA gels 4% PAGE 0.5x TBM (2.5 mM MgCl2), RT
Settings: protein: recombinant; tags: N-MBP, C-His6; label: 5' FAM; single strand

B1: (U)18 (ssRNA)
RNA: UUUUUUUUUUUUUUUUUU
B1: binds.
